First the molecules themselves.
B1: full-length HIS-tagged SMYD3 recombinant protein (enzyme, human, UniProt Q9H7B4 1-428, looked up)
chain: MEPLKVEKFATAKRGNGLRAVTPLRPGELLFRSDPLAYTVCKGSRGVVCDRCLLGKEKLMRCSQCRVAKYCSAKCQKKAWPDHKRECKCLKSCKPRYPPDSVRLLGRVVFKLMDGAPSESEKLYSFYDLESNINKLTEDKKEGLRQLVMTFQHFMREEIQDASQLPPAFDLFEAFAKVICNSFTICNAEMQEVGVGLYPSISLLNHSCDPNCSIVFNGPHLLLRAVRDIEVGEELTICYLDMLMTSEERRKQLRDQYCFECDCFRCQTQDKDADMLTGDEQVWKEVQESLKKIEELKAHWKWEQVLAMCQAIISSNSERLPDINIYQLKVLDCAMDACINLGLLEEALFYGTRTMEPYRIFFPGSHPVRGVQVMKVGKLQLHQGMFPQAMKNLRLAFDIMRVTHGREHSLIEDLILLLEECDANIRAS
notes: SMYD3 (lysine methyltransferase SET and MYND Domain Containing 3), full length, from the plasmid pET28-MHL-SMYD3 (Addgene 32048); no species is printed for the Addgene plasmid; also called HIS-SMYD3; HIS-SMYD3 fusion protein; source: E. coli BL21 (DE3), purified (Dynabeads HIS-Tag Isolation and Pulldown)

Holding throughout (conditions): both partners purified
For assay [1], the target named is T1, untagged human full-length c-MYC protein (human, UniProt P01106-2 1-454).
T1 construct: c-MYC, human, full length, untagged; also called c-MYC recombinant protein; untagged recombinant c-MYC protein; source: bought: Abcam ab169901, expressed in E. coli
Nature of the assay: pull-down; HIS-SMYD3 incubated with recombinant c-MYC or FLAG c-MYC fragments for 1 h at 4 °C, precipitated with Dynabeads HIS-Tag Isolation and Pulldown, washed in buffer A (20 mM Tris-HCl pH 8, 150 mM KCl, 5 mM MgCl2, 0.2 mM EDTA, 10% glycerol, 0.1% NP-40, 1 mM DTT), immunoblot.

Assay [2] concerns the target B1. The assay is described as above.
Assay [3] deals with B1. Briefly: pull-down; competition assay: 500 ng HIS-SMYD3 and 200 ng untagged full-length c-MYC, 1 h at 4 °C, with escalating doses (0, 1, 5, 25, 125 µM) of P14, P14ext1 or P14ext2; precipitated on histidine beads, immunoblot with anti-c-MYC and anti-HIS.

Results on four molecules are retold here after article PMC12209437, “Tailoring a novel colorectal cancer stem cell-targeted therapy by inhibiting the SMYD3/c-MYC axis” (Signal Transduction and Targeted Therapy, 2025).

In the case of B1, in assay [1], the binding result was “binds”.

B2: FLAG c-MYC M3 (aa 1-165) (domain or fragment, human, UniProt P01106-2 1-165, looked up)
chain: MDFFRVVENQQPPATMPLNVSFTNRNYDLDYDSVQPYFYCDEEENFYQQQQQSELQPPAPSEDIWKKFELLPTPPLSPSRRSGLCSPSYVAVTPFSLRGDNDGGGGSFSTADQLEMVTELLGGDMVNQSFICDPDDETFIKNIIIQDCMWSGFSAAAKLVSEKLA
notes: c-MYC, human, residues 1-165 of the 454-residue form; amplified from p3xFLAG CMV14 c-MYC-WT, itself made from pcDNA3-c-MYC (Addgene 16011); Vector p3xFLAG-CMV14 (Sigma E7908); also called p3xFLAG CMV14 c-MYC-M3
Turning to B2, the binding result in assay [2] is listed as “binds”.

B3: P14 ext1 (E42EENFYQQQ50) (peptide)
peptide: EEENFYQQQ
notes: numbers count on the 454-residue isoform; source: bought: custom purchased from Thermo Fisher Scientific
On to B3, for which, in assay [3], the binding result was “binds”.

B4: P14 ext2 (P36YFYCDEEENFYQQQQQSEL55) (peptide)
peptide: PYFYCDEEENFYQQQQQSEL
notes: as for B3
For the molecule B4, in assay [3], the binding result is on record as “binds”.
